Source: patent publication US20210292412A1 (published 2021)

B1: h15G6 VH-v5/VK-v1 (antibody, V domains shown)
VH: QVQLVQSGAEVKKPGASVKVSCKASGYTFTDYYIHWVRQAPGQGLEWMGWIYPGSGNTKYNEKFQGRVTMTRDTSISTAYMELSSLRSDDTAVYYCARRREDSFDYWGQGTLVTVSS
VL: DIVMTQSPDSLAVSLGERATINCKSSQSLLYSSNQKNYLAWYQRKPGQPPKLLIYWASNRESGVPDRFSGSGSGTDFTLTISSLQAEDVAVYYCQQFYRYPLTFGQGTKVEIK
B2: h15G6 VH-v7/VK-v1 (antibody, V domains shown)
VH: QVQLVQSGAELKKPGASVKVSCKASGYTFTDYYIHWVRQAPGQGLEWMGWIYPGSGNTKYNEKFQGRVTLTVDTSTSTVYMELSSLRSDDTAVYYCARRREDSFDYWGQGTLVTVSS
VL: DIVMTQSPDSLAVSLGERATINCKSSQSLLYSSNQKNYLAWYQRKPGQPPKLLIYWASNRESGVPDRFSGSGSGTDFTLTISSLQAEDVAVYYCQQFYRYPLTFGQGTKVEIK
B3: h15G6 VH-v1/VK-v1 (antibody, V domains shown)
VH: QIQLVQSGAEVKKPGASVKVSCKASGYTFTDYYIHWVRQAPGQGLEWMGWIYPGSGNTKYNEKFQGRVTLTVDTSSSTVYMELSSLRSDDTAVYFCARRREDSFDYWGQGTTLTVSS
VL: DIVMTQSPDSLAVSLGERATINCKSSQSLLYSSNQKNYLAWYQRKPGQPPKLLIYWASNRESGVPDRFSGSGSGTDFTLTISSLQAEDVAVYYCQQFYRYPLTFGQGTKVEIK
B4: h15G6 VH-v7/VK-v2 (antibody, V domains shown)
VH: QVQLVQSGAELKKPGASVKVSCKASGYTFTDYYIHWVRQAPGQGLEWMGWIYPGSGNTKYNEKFQGRVTLTVDTSTSTVYMELSSLRSDDTAVYYCARRREDSFDYWGQGTLVTVSS
VL: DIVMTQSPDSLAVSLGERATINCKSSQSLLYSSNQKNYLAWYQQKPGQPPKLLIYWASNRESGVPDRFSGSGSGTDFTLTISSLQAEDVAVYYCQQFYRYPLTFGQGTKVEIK

Key:
[1] = biological target: T1, recombinant N-terminal extracellular domain protein of human CD47 molecule (hCD47) (UniProt Q08722 19-135); assay: BLI; affinity
T1 chain: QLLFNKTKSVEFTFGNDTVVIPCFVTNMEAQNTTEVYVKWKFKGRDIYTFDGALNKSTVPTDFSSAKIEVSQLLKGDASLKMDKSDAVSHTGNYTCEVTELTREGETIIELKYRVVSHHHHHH

[2] = biological target: T2, human CD47 on CCRF-CEM cells (CD47 positive cells) (human, UniProt Q08722 19-323); assay: FACS blocking of CD47-SIRPα
[3] = biological target: T1, recombinant N-terminal extracellular …; assay: ELISA blocking of CD47-SIRPα
[4] = biological target: T2, human CD47 on CCRF-CEM cells (CD47 …); assay: FACS binding
[5] = biological target: T1, recombinant N-terminal extracellular …; assay: BLI; avid
[6] = biological target: T1, recombinant N-terminal extracellular …; assay: ELISA binding

Binder	Kd [1] [nM]	IC50 [2] [nM]	IC50 [3] [nM]	EC50 [4] [nM]	Kd [5] [nM]	EC50 [6] [nM]
B1	23	0.0488	0.118	0.0483	0.2	0.0314
B2	41	0.134	0.053	0.0482	0.6	0.0283
B3	18	0.0686	0.0942	0.0602	0.41	0.092
B4	56	0.0397	0.0843	0.0488	0.71	0.0229
